What was measured:
[1] = molecular target: T1, SRC (UniProt P12931 2-536); assay: co-immunoprecipitation in SW-480 and HCT-116 colorectal cancer cells
T1 construct: Endogenous protein in colorectal cancer cell lysates or cells; also called p-SRC (phosphorylated form)
From the text: As a result of performing immunoprecipitation to confirm the expression correlation between ICAM-1 and SRC in SW-480 and HCT-116 colorectal cancer cells, it was confirmed that ICAM-1 binds to SRC endogenously, as shown in FIG. 3D.

[2] = molecular target: T1, SRC; assay: immunoprecipitation with ICAM-1 Tyr512 mutants
Method: Furthermore, in order to confirm that ICAM-1 binds to SRC by a specific residue, an immunoprecipitation reaction was performed using a mutant with phosphomimetics form that inhibits (Y512A) or activates (Y512D) the Tyr512 phosphorylation residue of ICAM-1.

Binder	binding result [1]	binding result [2]
intracellular adhesion molecule 1 (ICAM-1) (receptor, The assay used the endogenous protein of SW-480 and HCT-116 cells) QTSVSPSKVILPRGGSVLVTCSTSCDQPKLLGIETPLPKKELLLPGNNRKVYELSNVQEDSQPMCYSNCPDGQSTAKTFLTVYWTPERVELAPLPSWQPVGKNLTLRCQVEGGAPRANLTVVLLRGEKELKREPAVGEPAEVTTTVLVRRDHHGANFSCRTELDLRPQGLELFENTSAPYQLQTFVLPATPPQLVSPRVLEVDTQGTVVCSLDGLFPVSEAQVHLALGDQRLNPTVTYGNDSFSAKASVSVTAEDEGTQRLTCAVILGNQSQETLQTVTIYSFPAPNVILTKPEVSEGTEVTVKCEAHPRAKVTLNGVPAQPLGPRAQLLLKATPEDNGRSFSCSATLEVAGQLIHKNQTRELRVLYGPRLDERDCPGNWTWPENSQQTPMCQAWGNPLPELKCLKDGTFPLPIGESVTVTRDLEGTYLCRARSTQGEVTRKVTVNVLSPRYEIVIITVVAAAVIMGTAGLSTYLYNRQRKIKKYRLQQAQKGTPMKPNTQATPP	binds	–
ICAM-1 Y512D mutant (receptor) QTSVSPSKVILPRGGSVLVTCSTSCDQPKLLGIETPLPKKELLLPGNNRKVYELSNVQEDSQPMCYSNCPDGQSTAKTFLTVYWTPERVELAPLPSWQPVGKNLTLRCQVEGGAPRANLTVVLLRGEKELKREPAVGEPAEVTTTVLVRRDHHGANFSCRTELDLRPQGLELFENTSAPYQLQTFVLPATPPQLVSPRVLEVDTQGTVVCSLDGLFPVSEAQVHLALGDQRLNPTVTYGNDSFSAKASVSVTAEDEGTQRLTCAVILGNQSQETLQTVTIYSFPAPNVILTKPEVSEGTEVTVKCEAHPRAKVTLNGVPAQPLGPRAQLLLKATPEDNGRSFSCSATLEVAGQLIHKNQTRELRVLYGPRLDERDCPGNWTWPENSQQTPMCQAWGNPLPELKCLKDGTFPLPIGESVTVTRDLEGTYLCRARSTQGEVTRKVTVNVLSPRYEIVIITVVAAAVIMGTAGLSTYLYNRQRKIKKDRLQQAQKGTPMKPNTQATPP	–	binds
